Measurements reported in the supplement of paper PMC7877785.
± gives the uncertainty stated by the source.

Experiment: self-splicing fitness, log relative to wild type (ln ratio); higher = more splicing; Tetrahymena group I intron in knt gene, E. coli kanamycin selection, DiMSum; sequences stand for … in CUCUCU…GGAGGGAAAAGUUAUCAGGCAUGCACCUGGUAGCUAGUCUUUAAACCAAUAGAUUGCAUCGGUUUAAAAGGCAAGACCGUCAAAUUGCGGGAAAGGGGUCAACAGCCGUUCAGUACCAAGUCUCAGGGGAAACUUUGAGAUGGCCUUGCAAAGGGUAUGGUAAUAAGCUGACGGACAUGGUCCUAACCACGCAGCCAAGUCCUAAGUCAACAGAUCUUCUGUUGAUAUGGAUGCAGUUCACAGACUAAAUGUCGGUCGGGGAAGAUGUAUUCUUCUCAUAAGAUAUAGUCGGACCUCUCCUUAAUGGGAGCUAGCGGAUGAAGUGAUGCAACACUGGAGCCGCUGGGAACUAAUUUGUAUGCGAAAGUAUAUUGAUUAGUUUUGGAGUACUCGUGGUCG
Outline: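 Six replicate transformations of E. coli BL21(DE3) with a pET-22b(+) library were grown overnight at 37°C or 30°C. The library randomised all eight P1ex-region intron nucleotides, the intron lying in the knt kanamycin-resistance gene, and plates were LB agar with or without 25 μg/mL kanamycin plus 100 μg/mL carbenicillin, 50 μM IPTG and 0.2% rhamnose. Pooled colonies were amplicon-sequenced on an Illumina HiSeq 2500, and fitness is the DiMSum error-weighted combination of wild-type-normalised replicate fold changes, kanamycin versus none.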

Sequence	self-splicing fitness (ln) (30 °C)	self-splicing fitness (ln) (37 °C)
GUGCAGCAAUAUUACGGUAU	-2.16 ± 0.12	-1.53 ± 0.15
CCACAGCAAUAUUACGAAAG	-1.55 ± 0.066	-0.182 ± 0.082
UAGUAGCAAUAUUACGCCGU	-2.58 ± 0.24	-2.23 ± 0.3
CUGCAGCAAUAUUACGGAGU	-3.05 ± 0.14	-1.65 ± 0.13
AUGAAGCAAUAUUACGGCCC	-0.0924 ± 0.12	0.156 ± 0.17
CUUUAGCAAUAUUACGCAGU	-1.8 ± 0.3	-2.34 ± 0.49
GGUCAGCAAUAUUACGCACA	-0.667 ± 0.082	0.412 ± 0.12
GAUGAGCAAUAUUACGGGAC	–	-3.23 ± 0.4
AGUUAGCAAUAUUACGGGAA	-2.22 ± 0.19	-1.05 ± 0.16
ACACAGCAAUAUUACGGCCU	-0.094 ± 0.086	-0.0787 ± 0.12
AAGGAGCAAUAUUACGCCCU	-1.87 ± 0.35	-1.91 ± 0.43
AAUAAGCAAUAUUACGUAAC	–	-1.85 ± 0.25
AGUCAGCAAUAUUACGCUUU	-0.879 ± 0.063	0.0148 ± 0.087
CGUUAGCAAUAUUACGUUCU	-1.39 ± 0.15	-1.25 ± 0.14
UAGUAGCAAUAUUACGAUCA	-0.544 ± 0.088	0.306 ± 0.12
AGUAAGCAAUAUUACGGGAA	-2.13 ± 0.16	-2.12 ± 0.19
GUGAAGCAAUAUUACGGGCA	-0.763 ± 0.064	-0.106 ± 0.083
CUAUAGCAAUAUUACGGUAU	-4.43 ± 0.36	-3.22 ± 0.27
UUGCAGCAAUAUUACGAGAA	–	-1.47 ± 0.34
CAUUAGCAAUAUUACGGGAA	–	-2.59 ± 0.41
CGGUAGCAAUAUUACGAAGA	-2.99 ± 0.42	-2.32 ± 0.29
CGACAGCAAUAUUACGGAUG	-0.977 ± 0.051	-0.0449 ± 0.059
UCACAGCAAUAUUACGUCUU	-1.68 ± 0.12	-2.4 ± 0.16
CCUUAGCAAUAUUACGGACC	-2.33 ± 0.3	–
CCUAAGCAAUAUUACGAUCU	-3.39 ± 0.35	-3.07 ± 0.28

Sequence	self-splicing fitness (ln) (30 °C)	self-splicing fitness (ln) (37 °C)
UACGAGCAAUAUUACGUAAG	-3.58 ± 0.2	-2.33 ± 0.19
CAGGAGCAAUAUUACGAGUA	–	-2.34 ± 0.42
CAACAGCAAUAUUACGUUGU	-4.21 ± 0.18	-3.06 ± 0.16
UUGUAGCAAUAUUACGCCUA	-0.297 ± 0.12	0.0606 ± 0.13
UGAAAGCAAUAUUACGGGCU	-2.04 ± 0.16	-1.97 ± 0.27
GAAUAGCAAUAUUACGAACA	-0.419 ± 0.13	-0.622 ± 0.11
CUUUAGCAAUAUUACGUCGU	-2.27 ± 0.36	-3.05 ± 0.37
ACGCAGCAAUAUUACGGAGU	-2.79 ± 0.093	-2.08 ± 0.12
UGCCAGCAAUAUUACGGACC	-0.869 ± 0.2	0.326 ± 0.23
AGAGAGCAAUAUUACGGUGA	-3.54 ± 0.38	–
GACUAGCAAUAUUACGCGCA	-0.593 ± 0.16	-0.286 ± 0.18
CGUUAGCAAUAUUACGCAUU	-4.27 ± 0.25	-1.29 ± 0.12
ACUAAGCAAUAUUACGGGGC	-4.09 ± 0.42	-2.79 ± 0.24
AAACAGCAAUAUUACGAUUU	-0.279 ± 0.053	0.219 ± 0.071
UGCUAGCAAUAUUACGGAUA	-1.44 ± 0.11	-1.1 ± 0.13
CUGAAGCAAUAUUACGCAAU	-3.09 ± 0.24	-2.67 ± 0.36
GAAAAGCAAUAUUACGUGAC	-4.06 ± 0.34	-1.17 ± 0.17
GUACAGCAAUAUUACGACCU	-0.715 ± 0.21	-0.152 ± 0.24
CGUUAGCAAUAUUACGCCGG	-0.8 ± 0.11	-0.767 ± 0.11
AGCCAGCAAUAUUACGCCCA	-1.93 ± 0.2	-1.72 ± 0.25
UCUCAGCAAUAUUACGGCGU	-0.533 ± 0.087	-0.636 ± 0.12
UUCCAGCAAUAUUACGUUUU	-3.74 ± 0.14	-2.65 ± 0.16
AGCCAGCAAUAUUACGCCGC	-2.98 ± 0.28	-3.25 ± 0.37
CGCUAGCAAUAUUACGAUUG	-1.18 ± 0.1	0.0898 ± 0.13
CUGUAGCAAUAUUACGUUGG	-3.56 ± 0.13	-1.46 ± 0.11

Sequence	self-splicing fitness (ln) (30 °C)	self-splicing fitness (ln) (37 °C)
CCCCAGCAAUAUUACGCUCC	-3.09 ± 0.36	-2.91 ± 0.47
GAAUAGCAAUAUUACGCGUU	-3.4 ± 0.24	-1.37 ± 0.15
CUCGAGCAAUAUUACGCGGG	-3.9 ± 0.39	–
GUAAAGCAAUAUUACGAUAU	-0.349 ± 0.087	-0.0732 ± 0.11
GUUAAGCAAUAUUACGUAGC	-2.84 ± 0.19	-1.86 ± 0.26
UUAAAGCAAUAUUACGACAG	0.285 ± 0.1	0.0597 ± 0.14
GUUAAGCAAUAUUACGGCUC	0.46 ± 0.2	-0.6 ± 0.21
GUUCAGCAAUAUUACGAAGG	-1.55 ± 0.2	-0.421 ± 0.23
UGUCAGCAAUAUUACGCUCC	-0.598 ± 0.29	-1.2 ± 0.34
GAAGAGCAAUAUUACGCACA	-1.91 ± 0.16	-1.07 ± 0.14
UUGUAGCAAUAUUACGAGUC	-3.94 ± 0.42	-2.67 ± 0.32
CACUAGCAAUAUUACGCGCC	-2.9 ± 0.23	-1.22 ± 0.22
ACGCAGCAAUAUUACGUGCU	-3.65 ± 0.18	-2.9 ± 0.19
CGUCAGCAAUAUUACGGGUC	-4.23 ± 0.39	-2.73 ± 0.23
AUGAAGCAAUAUUACGCAGG	-0.47 ± 0.12	-0.916 ± 0.14
UCUGAGCAAUAUUACGCGAC	–	-2.85 ± 0.48
CCUGAGCAAUAUUACGUCUC	–	-3.42 ± 0.37
ACAGAGCAAUAUUACGUUCG	-2.06 ± 0.11	-0.493 ± 0.12
CGUGAGCAAUAUUACGUUAG	-2.02 ± 0.081	-1 ± 0.094
UACAAGCAAUAUUACGCGAA	-2.37 ± 0.099	-0.769 ± 0.095
GUUGAGCAAUAUUACGGGGG	-3.87 ± 0.31	-2.34 ± 0.25
GUUCAGCAAUAUUACGAAGA	-0.456 ± 0.086	0.147 ± 0.1
UAAAAGCAAUAUUACGUCGG	-0.992 ± 0.097	-0.876 ± 0.12
AGGAAGCAAUAUUACGGCCG	-0.634 ± 0.12	-0.462 ± 0.19
CCAAAGCAAUAUUACGUGAG	-0.357 ± 0.049	0.0847 ± 0.073

Sequence	self-splicing fitness (ln) (30 °C)	self-splicing fitness (ln) (37 °C)
CUUAAGCAAUAUUACGCCAA	-2.46 ± 0.42	-2.43 ± 0.33
AAACAGCAAUAUUACGGGAG	-3.34 ± 0.13	-2.66 ± 0.14
UAUUAGCAAUAUUACGAGAC	-2.57 ± 0.47	–
GGCUAGCAAUAUUACGACAA	-0.713 ± 0.29	-0.198 ± 0.33
ACGCAGCAAUAUUACGGGAU	-2.32 ± 0.079	-1.41 ± 0.089
CCUAAGCAAUAUUACGAGGU	-4.68 ± 0.25	-3.38 ± 0.18
AAAAAGCAAUAUUACGCAUA	-1.5 ± 0.11	-0.715 ± 0.1
AUUAAGCAAUAUUACGAUUC	-1.89 ± 0.1	-0.797 ± 0.12
GAGUAGCAAUAUUACGCACU	-3.18 ± 0.19	-1.34 ± 0.36
AUCCAGCAAUAUUACGCCAA	-2.78 ± 0.22	-1.71 ± 0.18
UAAAAGCAAUAUUACGUUCC	-3.46 ± 0.3	-2.57 ± 0.29
CCAAAGCAAUAUUACGUCCA	-2.8 ± 0.26	-2.19 ± 0.3
UAUGAGCAAUAUUACGAAUA	-2.94 ± 0.27	-2.22 ± 0.21
CACCAGCAAUAUUACGCAGU	-3.61 ± 0.19	-2.09 ± 0.23
AAUAAGCAAUAUUACGCGCA	-0.438 ± 0.081	-0.0417 ± 0.11
UGCUAGCAAUAUUACGAUAA	-1.64 ± 0.15	-0.358 ± 0.14
GCGCAGCAAUAUUACGACCA	-1.56 ± 0.25	-0.19 ± 0.23
AUCCAGCAAUAUUACGGCGA	-1.02 ± 0.098	-0.399 ± 0.13
AACCAGCAAUAUUACGGCAU	0.127 ± 0.053	0.376 ± 0.067
UAUCAGCAAUAUUACGUUAC	-4.75 ± 0.39	-2.6 ± 0.21
ACAUAGCAAUAUUACGCCAC	-3.57 ± 0.27	-0.959 ± 0.17
AAAAAGCAAUAUUACGUGGC	-3.59 ± 0.21	-1.59 ± 0.14
GUUGAGCAAUAUUACGAACU	–	-1.61 ± 0.27
AUGAAGCAAUAUUACGUACU	0.105 ± 0.096	0.581 ± 0.11
